# Source: patent publication US20140303084
# T1: compound 5
# T1 chain: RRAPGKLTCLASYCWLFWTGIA
# T2: compound 1 (not fully specified)
# T2 chain: KLTCLASYCWLF
# B1: human Factor VIIa (protein)
# chain: ANAFLEELRPGSLERECKEEQCSFEEAREIFKDAERTKLFWISYSDGDQCASSPCQNGGSCKDQLQSYICFCLPAFEGRNCETHKDDQLICVNENGGCEQYCSDHTGTKRSCRCHEGYSLLADGVSCTPTVEYPCGKIPILEKRNASKPQGRIVGGKVCPKGECPWQVLLLVNGAQLCGGTLINTIWVVSAAHCFDKIKNWRNLIAVLGEHDLSEHDGDEQSRRVAQVIIPSTYVPGTTNHDIALLRLHQPVVLTDHVVPLCLPERTFSERTLAFVRFSLVSGWGQLLDRGATALELMVLNVPRLMTQDCLQQSRKVGDSPNITEYMFCAGYSDGSKDSCKGDSGGPHATHYRGTWYLTGIVSWGQGCATVGHFGVYTRVSQYIEWLQKLMRSEPRPGVLLRAPFP
# B2: mouse FIXa (protein)
# chain: YNSGKLEEFVRGNLERECIEERCSFEEAREVFENTEKTTEFWKQYVDGDQCESNPCLNGGICKDDISSYECWCQVGFEGRNCELDATCNIKNGRCKQFCKNSPDNKVICSCTEGYQLAEDQKSCEPTVPFPCGRASISYSSKKITRAETVFSNMDYENSTEAVFIQDDITDGAILNNVTESSESLNDFTRVVGGENAKPGQIPWQVILNGEIEAFCGGAIINEKWIVTAAHCLKPGDKIEVVAGEYNIDKKEDTEQRRNVIRTIPHHQYNATINKYSHDIALLELDKPLILNSYVTPICVANREYTNIFLKFGSGYVSGWGKVFNKGRQASILQYLRVPLVDRATCLRSTTFTIYNNMFCAGYREGGKDSCEGDSGGPHVTEVEGTSFLTGIISWGEECAMKGKYGIYTKVSRYVNWIKEKTKLT
# Assays:
# compound 5 = biological target: T1, compound 5
# compound 1 = biological target: T2, compound 1
Protein,"Δ kM of FVIIa, FXa generation assay (compound 5)","Δ kcat of FVIIa, FXa generation assay (compound 5) [fold]","Vmax, FXa generation assay (compound 1)"
B1,0.3,2420,
B2,,,the Vmax is greatly reduced with mFIXa compared to hFIXa
